Measurements taken from article PMC5505988.

Biological target: HLA-A*11:01 heavy chain with β2-microglobulin (human)

Substance: SSCS, N-terminal 4-mer of EBV LMP2(340–349) (peptide)
- melting temperature (Tm) of the pHLA complex refolded with SSCS + SCPLSK (m9 + m10), thermofluor thermal shift assay: 50.3 °C

Substance: SSCSS, N-terminal 5-mer of EBV LMP2(340–349) (peptide)
- melting temperature (Tm) of the pHLA complex refolded with SSCSS + SCPLSK (m11 + m10), thermofluor thermal shift assay: 49.7 °C

Substance: SSCSSC, EBV LMP2(340–345), N-terminal 6-mer (peptide)
- melting temperature (Tm) of the pHLA complex refolded with SSCSSC + SCPLSK (m13 + m10), thermofluor thermal shift assay: 48.7 °C
- melting temperature (Tm) of the pHLA complex refolded with SSCSSC + SSCPLSK (m13 + m5), thermofluor thermal shift assay: 49.4 °C
